Measured values from the NTF2 design screens of Basanta et al. (2020).

Assay: protease stability score; higher = more stable; yeast display proteolysis, trypsin and chymotrypsin;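 note: relative to predicted unfolded state with 0 unfolded-like and 1 meaning tenfold more protease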

Row | Sequence | protease stability score
1 | DEDLQFLKNFKEEWIKNLRTGDEDAVQKLADPNVRIDIDGKELHGREVMLEMLHQETNELRLKDVKDKHMTVQGDKIHWDGILIITINGKEIRRRVHIFVQKVDGRWVIESEIHR | 0.942
2 | EEEAAHQFNKWLSLMKHGNEHKASEMLDKDAHIKVGDKTLQGREDVQRDVRRRKEELKFSMTIVDYKDHGDKARLTVEQTNDHNGRPRTRRANVTVHVSNGRVKEIVINDDS | -0.16
3 | SEDDEFYKHAFNLMIRVLETGDEELFTKMADPNVRSEINGQDIHGREMLSHIVLEEVRRADHIEFRIDHFRVIGDKVEHDGTKILNVNGVNIELRFHLHSVKVNGKWILKSERVD | 0.869
4 | DEEEEILREFSEKWLHAFRTGDWRDIWHLMDPHVKVIIFVDGREKEIHGREEYATQLHERLEKVKGMRFRDKDMDHVNGRLVINVTVHQGDKHKEFRIIIDVVNGRVKRIEIHLH | 2.06
5 | DEDHEILHRLWELLIKLLKTGDEEIMKRLADPDTKVEAEGRKLIGRDEFVKWMREFSKRFDHVEIRFKRMHIINGRVYMNGHIVEQQGEYQYRQDTIIVSEKVDGRWLITHIHIE | 1.44
6 | SEEEKILDDILKLFLDDVRTGNEDSLHRLADPHVRQDYNGVELHGMELVVHWLVELRVEDWRHKDSDSAENRVHLNGIVDGNINGKKQRREIILVIRKVDGRWFLEHNIVI | 1.23
7 | SEEEKKDHRQWERTFKAFLTGDEDTVHNLADPHVKTEVGDKEYHGRENFSKLISDLGVDHLNLKEIDTVNGRIHLLSEVRFNGQITKFIIIILKVNGQWHVESMEFH | 0.441
8 | DEEENMAEWAIRLMKHVIETGNFEEFLRLFDPNTRMHVNGVESHGRERSSKVLKEWLEIMGVDHLKVRDEKFSVQGNKLHIHLDTRTEQGDKEIETHIEVISYKIDGRWRQKEIRFEVR | 1.69
9 | TEDIEHMIKVVEIFLRAVTTGNEDEMKYLMDPRMRLVVGDKIHHGWEEIWKFLEHIREERDKVHTKDTKVYNGRMDINSRVSSTIHFNGVRIEIDHEVHFHIKKINGRWFIEEIRIQ | 1.3
10 | SEEENEAKSWLEYVIRLLETGDEDSLRKLMDPHVRLIQGDKEFHGRELVTDIISEHIRKVKNVRIRIDDIKFIGEKVYLHGTLEYGDKKHELHLITDKVNGRWLLRSIELR | 2.56
11 | SEEEEESRRFMQHMSRSLATGDWRQVRNLLDPHVRTDINGRDLHGWRDYVRHVLELGIKHIHIEDIRLVGDYAHIDGEMDVNGRDVRVHILVLKINGRWVIESEELK | 0.427
12 | HELLEIIHRVAQMIYENLLTGNEDLFEHLADPNRRLLVNGVDLVGWERVVKWEKEMRIHDHRLRDESMTRQGDKAFVHHRTELRGDINGREIHTETKLNIVIRKIDGKWIVERIEVRID | 0.81
13 | DEEHEHLHKWLDMLLYAHKTGDPEVILKNADPHVRSEVDGREVHGMEKFARDLYEMRIHRIHIKDVKTIGNKLDVDGRLDGEFNGKRVDSDVHLHLVVIDGRLHSLHIKHR | 0.558
14 | DEDNEYVEYMHELIARALITGDFELWLKLMDPNTRMQIDGKEFHGREEFRKRLEHLRIDRVRYNVRHFHIIGDKLHVKSEFEIDGQIDGVDRHFSVEIRVLIWKINGRWILRDETTH | 1.69
15 | DEDDEMWRELFEMYIRLARTGDEKADELLMDPDARIEIGDKRWHGREWTHFFLERVDHVHRVEFRVDDRRIQGDKVDVDGTFILDIHQGDKRIHTSIRSHLTVLKVDGKWRVHQMELR | 1.73
16 | DEREKEALDIAREVLHNIMTGDWERLSQLLDPNTRFHEHWNGVHIDLHGRETVSHLLFRHVKHIRIEHVHLEDMVVIGEKAIIHSRRHIEIDGKHMTHHVLLYLLVIDGKIKDVRLHLE | 0.869
17 | DEDTARKQVQIYKDNDPNQLVRMFDENARLKVGDQTVDGREELERWVKRLRTRVDRYSYKNVDIQGERVVIDMVMVVDGKQVEFVVEFVVEDGRIKNAKVQARNKDEETKLQEAIG | 1.37
18 | DKDDHDFERVLRIFIESIRTGDEDSIRRLADPSVKHVVNGKEFHGREDWEEMIRRIDHIRDFELKSVSIYNGKIEVDGVLTGIFNGREDKTHVHIIMMKVNGRWYIKSWELK | 1.93
19 | SEDEEMSKEASEWMLEIILTGDEDSLRKLLDPDYRLHVDGQEFHGRENVVKAFMEWLQRFGIKHIHLEDTRIEVQGDKVIVHERTHVDVNGKKTETELFLIALKFDGKWMTHSIEIRYE | 2.09
20 | DEEHEWMHIMMELLLRAFETGDPDLFEHLADPNTRLQIGDKTIHGRTKVSTWLHREIRRADHLEIRLREYDYQGDKLEMKTELIIQQGDKQVQLETRVIIIKINGRWFLESIEIN | 1.23
21 | SEEDHHTERIVEEFIEAERTGDEDHLLELIDPHVRVDVNGVELHGREELYKFWRDWLTKFKNARIEIRHVNNQGDKSTVLVLRRINGVDLETHVKWVFVNGKLKSITIRLN | 1.49
22 | DHVEKEARKFEKLLRHAETTGDEELYLKMIDPNVRIIIGEKNLVGREEVEKWLQTLGVSKVEIRHVEEKDIEIDEDHIRIHGRIIGRYNGKERDFEKHIIVQKIDGKWVLHTEEIR | 0.385
23 | DHDDEMLEHFMNLWLHAVATGDEELLSNLLDPNVREIINGKTIHGREEFLKLYHELARRIDHIHIRVRWYDMQGEFLISKTEIEFRFNGVNLKFETKMIVLKINGKWILHSIRFE | 1.26
24 | DEEEQQVEEVLRNMLRDFYTGDWKRLMKLADPHVQLDINGQLHHGREEAARFLIEWWEILGFKHSRLRHIDIQGEKLHIHGDKRVNGRTFELELIIIIINGRIRSEEIRVI | 0.691
25 | DEIVEMVREIAEEILHAELTGDEDKFKKLIDPNVRLQINGKDIHGMEDFRKWNEEWRIHHIEVKHLDIFEGHSRMDGKLDGTINGQRRNLKTILEIKVVDGRVKEITIHVL | 1.12

Row | Sequence | protease stability score
26 | DEFKELTTEFIKQFLDNIRTGNEELLRELADPHVRFLVNGRELHGRESFVETFRHWRMKDWEIRDVEVYGEKLVMDGHVRVNIDGREDSVRVRLYVDKIDGQWHHRRFEFN | 1.76
27 | SEDEKFARHVVKLWEDNYKTGNFEELLHMMDPHVKIKVNGRELHGWEELEKILTEFHERFRNQKLDIKLRDLKIQGNYVHADMELTIHYNGQEHREQVHLVVRKVNGRWEIEKITFD | 0.813
28 | DHEDDEFDFAIELWVTIMKTGDEEFLERYVDPHARLIVGDKRFHGREVIEFMLRRIDVLDRIEVEHRQSVNGRMIIHQHLHHAIDGRRNEVRMRVVVHKVDGRWDLDELQFD | 1.36
29 | LEFEEHLHRWVNFYLNVHRTGDEEHIEKLADPDMRIEVGDKELHGRERAYEFWRRYLEEARLHDMKIRSVELVGDKIILDTEIHSIVGDKHIRERLEIILTKINGRWMLKSMRVQ | 1.45
30 | SEDEHHLERALKEWIKVFETGDEDKEKKMADPHMRTDINGVELHGRELMITLIVELWEKLGVDHLEFNLSRFEIVNGQVFLHMEENLFVNGQRLRFKHEIIFNKVDGRWIVEEIRIH | 1.26
31 | SEEKEEVKEVVEHVLEVMLTGDEEHSRELVDPHVRIEVGDKSRHGRDDMAHWLSHARIHRLHIKRSEVIGDYLHIDVHIDVEYNGKRMTTDVRRHELKVDGRWFIREERIE | 1.42
32 | DHIDEDAAHVSRVLLTLLRTGDEETLFQLLDPNMRVDVNGVELHGREEWWKHVYRRNKELGMEVKYHLHKLTVINGVAHIDFRIEIYIGDKRIEYRHEVHIEKINGVWLVREIREG | 1.47
33 | THEEELSREATRFMLHVLMTGDPTLTEEQADPRTRVVVGDKELHGMEHLSKWYEDHWRQYPNVRIEFKRTEVQGDKMFLDGRLKVNGRETHVFILAFKINGQWVLEEIRFK | 1.59
34 | TEDREIAKKFAEHMIHNYETGDFERILELLDPHTKIHVNGKDMHGREHWLHHLKKWGVDRIESEIRHVEIQGDKVKVDTELHYGDKTIERTVIFEKFDGRWVLREVRVD | 1.12
35 | DEEEELARKSLEVWLKSSQTGDENHLEHMFDPNARLNIDGVELIGREHAKIWAKELRIHDIYPRRLRIQGNKLFLDLESDEEYNGKRTHFRRHLVMLKVNGVWIIESMHVE | 1.43
36 | DELEHLLREFFRLWKTAVETGDFRMLLELADPHVKQHIGDKTFVGWERLIESIERIVHEMRITEVTFTQVQVQGDYAHVDLRVFSEVGDKHLILKVELFLLKVNGRWVLESLRVE | 1.62
37 | DEEEKKFHELYKHLVKSLITGDEHELYRLADPNMRFSVGEFHYHGRENVLERLKEFIDRFRHATIRTKHMDRQGEYIHLTLKIHQGDKTHDMEIIAWKFDGRWFLHMIYIE | 0.959
38 | DEDLRMAFEMVRISDHEIDTGDEDSWTKLFDPHVRIRFPGRMLHGREYLHYVLKHARIHYDDSELKDVKFVGNKLLVDVHVRGTFFIDGQNIHTEVKRIHMIEKYNGKWKTTEMEIK | 0.469
39 | SEEERHSREMMKLYYKFLETGDEEKFLSLADPDVRIVFNGRDYHGWKDMEKLFHRLLKELGVDHFHIEHVRIDIIDGVAFAFFEVSYNIDGKSLHMHYRFYVKKIDGKWHVRWIHLEVK | 1.59
40 | SEEEEEAQRFFEEWSKSWVTGDEDLTLHLLDPNVKVDIGDKVYHGRESYLELLHLILREARVHSFHMHRLEVIGEKANIDSRVDHEVGDKRDTVHMNMIVVKINGRWILKSIQIK | 2.58
41 | SEDEELSKYLNEEINEILRTGDEDRWKELADPNTLLIIDGREFHGMELVIHLLHHLWKRLGIDQIHSTVEDEKVQGDKIIFHHRLEYNGRESHVIIISHKFNGRWRAKRVEVN | 1.43
42 | SEEDRSSREAVEIYIWIIETGDEHLMEEFLDPHVRSHQGEFHSHGREVAHVYVKKFKNLKVRVREVRTQGDKVIIISEMRIGDFRLELTIIIWKYNGKWIVQEVDIK | 1.67
43 | SHDEELVERVLKMYKHAIETGDEELLTLLLDPDTRLEIDGVDFHGMDIAIHILFKELLRHGIRTEHMRVEDVKVQGDFVHVDVEVNIDVDGREETERRHLVLWKFNGRWRVKHHHIH | 2.35
44 | HDDQKESHEWAKLFEDWLQTGDEESILKQLDPHVRIEIGDKRNHGREELHRYEHEFWTKFGIDHIHIDDIRVQGEKVHLETTVIVNGRKFQQIIIVVFIDGVMQRLVIEDR | 0.798
45 | SEDEHFFRLVTRWIVRALLTGDEDSLQELLDPHVKFEINGRDFHGRESVYRAVLEIRRNDLRMKREHYHVQGDFVRSELTIEEELVIGDKIVTIESRLLLIILKINGRWYLEKMEVHFK | 1.41
46 | DETTDEMDKSLERFLDVVRTGDEHEDVHLADPHARIEFENRDIHGMKEHASQRIRVMLKFGWEVHIKFRHLRQVDGRLDVRLELRIKFDGVLYHLDTNEYWRKFDGRWVLDSMEFH | 1.24
47 | DSVEELAKRSVELLLRLLKTGDEEEISRLADPDTRLVIGEFEFHGMEKVEHSWRKMGFTIHEWRIHDVEVQGDKLIVHVHQNIEFNGVHEEFRSIIIARKINGRWRLKSLHWK | 1.67
48 | SEDEKNVEEMSRRLSHVLKTGDEESFSRLADPNARHIYNGRILHGWENFVRFLRHLWEHARIHELHVHDFEYQGDFMHVDSRLNGDINGQQMIFTTHLYNIKINGRWFLTEVKIV | 0.429
49 | DEERKIVLESVRLWLDEWETGDESALEKLMDPNVRVIIGDKTVHGREQMIKFLREWLTRYDHLEIKLRDIKVIGDKIHVESEFRYHIGDKELSHRTNVVLKIVDGKLKSVRVDFE | 1.93
50 | HEEEHDLKEVIRLFLELIDTGDEDVLERLADPNMRVIQGDKTIHGREEVRRTMQEDAKRIDHFEFRLRRVRVINGRLEVDGEFIERAEGHEFRSRVNIMLVKVNGRWVLKIIELR | 1.65
